Seven substances from patent US20040077572 can be followed below.

The test system of this series is Sleeping Beauty transposase SB10 (synthetic (reconstructed salmonid)). Description: cell_activity.

Consider Lo(AAG) transposon, for which the activity (relative excision) came out at 11%.

Under “relative excision, transposition 101%”, LoLi-LiLo transposon displayed an activity of 95%.

For LoLo-RiRo transposon, the activity (relative excision, transposition 45%) is 46%.

On to LoLo-RoRo transposon, for which the activity (transposition reduced nearly 85%) came out at 15%.

With RoRi-RiRo transposon, under “relative excision, transposition 29%”, the activity turned out to be 43%.

Under “relative transposition in HeLa”, “TANNNNCAGTTGAAGTCGGAAGTTTACATACACTTAAG (double strand) [TAN4Lo transposon]” came in with an activity of 30%.

Where the note is “just under four-fold over pT/SV40neo”, pT2/SV40Neo transposon returned an activity of 4 fold.
